From article PMC6317530

Substrate: O=C(O)c1cc(=O)[nH]c(=O)n1[C@@H]1O[C@H](COP(=O)(O)O)[C@@H](O)[C@H]1O
Test: purified protein
Conditions: pH 7.1 (10 mM MOPS), 25 °C, I = 0.105 (NaCl)

B1: ScOMPDC (yeast orotidine 5′-monophosphate decarboxylase) (Saccharomyces cerevisiae S288C; A160S/C155S/N267D/Q215A/S154A/S2H/Y217F) (protein)
chain: MHKATYKERAATHPSPVAAKLFNIMHEKQTNLCASLDVRTTKELLELVEALGPKICLLKTHVDILTDFSMEGTVKPLKALSAKYNFLLFEDRKFADIGNTVKLQYSAGVYRIAEWADITNAHGVVGPGIVSGLKQAAEEVTKEPRGLLMLAELASKGSLSTGEYTKGTVDIAKSDKDFVIGFIAQRDMGGRDEGYDWLIMTPGVGLDDKGDALGAQFRTVDDVVSTGSDIIIVGRGLFAKGRDAKVEGERYRKAGWEAYLRRCGQQD
In the case of B1, the Km is reported as 1500 ± 50 µM.
